This note sets out measurements from US20160257946A1.

This test addresses Her2 on the Her2-positive breast cancer cell line SKBR3 (UniProt P04626). Nature of the test: cell-based or functional assay.

Consider “trastuzumab-MMAF conjugates (trastuzumab-HC136-MMAF) (antibody)”, for which the cytotoxicity (cell killing, Cell Titer-Glo viability) on SKBR3 cells, EC50 was 43 to 71 pM.
